Data taken from patent US20200138866A1 (XYPHOS BIOSCIENCES, published 2020).

Target: T1, Fc-NKG2D.Y152A (human)
T1 construct: also called NKG2D.YA; Fc-NKG2D.YA
Test: ELISA and Octet

T1 sequence (chain, as listed by the source Y152A Y152A limits assumed): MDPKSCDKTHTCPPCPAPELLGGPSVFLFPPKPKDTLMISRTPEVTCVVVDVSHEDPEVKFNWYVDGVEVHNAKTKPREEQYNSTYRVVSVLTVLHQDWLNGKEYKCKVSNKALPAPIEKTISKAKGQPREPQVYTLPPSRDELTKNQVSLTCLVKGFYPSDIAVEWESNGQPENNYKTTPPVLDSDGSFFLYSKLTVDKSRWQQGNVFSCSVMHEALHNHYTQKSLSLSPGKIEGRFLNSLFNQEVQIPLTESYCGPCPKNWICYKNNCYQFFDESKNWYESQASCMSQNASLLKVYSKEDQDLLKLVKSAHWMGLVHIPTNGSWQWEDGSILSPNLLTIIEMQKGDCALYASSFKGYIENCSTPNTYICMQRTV

B1: rituximab-ULBP2.S3 MicAbody (bispecific antibody, human IgG1, kappa)
heavy: not shown
light: QIVLSQSPAILSASPGEKVTMTCRASSSVSYIHWFQQKPGSSPKPWIYATSNLASGVPVRFSGSGSGTSYSLTISRVEAEDAATYYCQQWTSNPPTFGGGTKLEIKRTVAAPSVFIFPPSDEQLKSGTASVVCLLNNFYPREAKVQWKVDNALQSGNSQESVTEQDSKDSTYSLSSTLTLSKADYEKHKVYACEVTHQGLSSPVTKSFNRGECAPTSSSGGGGSEPHSLSYDITVIPKFRPGPRWCAVQGQVDEKTFLHYDCGNKTVTPVSPLGKKLNVTTAWKAQNPVLREVVDILTEQLWDIQLENYTPKEPLTLQARMSCEQKAEGHSSGSWQFSFDGQIFLLFDSEKRMWTTVHPGARKMKEKWENDKVVATKLYLWSMGDCIGWLEDFLMGMDSTLEPS
notes: also called ULPB2.S3; U2S3 MicAbody
binding result: binds
